Measurements taken from the supplement of paper PMC7877785.
± gives the uncertainty stated by the source.

Experiment: self-splicing fitness, log relative to wild type (ln ratio); higher = more splicing; Tetrahymena group I intron in knt gene, E. coli kanamycin selection, DiMSum; sequences stand for … in CUCUCU…GGAGGGAAAAGUUAUCAGGCAUGCACCUGGUAGCUAGUCUUUAAACCAAUAGAUUGCAUCGGUUUAAAAGGCAAGACCGUCAAAUUGCGGGAAAGGGGUCAACAGCCGUUCAGUACCAAGUCUCAGGGGAAACUUUGAGAUGGCCUUGCAAAGGGUAUGGUAAUAAGCUGACGGACAUGGUCCUAACCACGCAGCCAAGUCCUAAGUCAACAGAUCUUCUGUUGAUAUGGAUGCAGUUCACAGACUAAAUGUCGGUCGGGGAAGAUGUAUUCUUCUCAUAAGAUAUAGUCGGACCUCUCCUUAAUGGGAGCUAGCGGAUGAAGUGAUGCAACACUGGAGCCGCUGGGAACUAAUUUGUAUGCGAAAGUAUAUUGAUUAGUUUUGGAGUACUCGUGGUCG
Method in brief: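 DiMSum derived fitness as the error-weighted combination of fold changes across replicates, kanamycin versus no kanamycin, normalised to wild type. E. coli BL21(DE3) held the library, which randomised all eight P1ex-region intron nucleotides within the knt kanamycin-resistance gene on pET-22b(+). Six replicate transformations grew overnight at 37°C or 30°C on LB agar with or without 25 μg/mL kanamycin, also containing 100 μg/mL carbenicillin, 50 μM IPTG and 0.2% rhamnose, and pooled colonies were amplicon-sequenced on an Illumina HiSeq 2500.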

Sequence	self-splicing fitness (ln) (30 °C)	self-splicing fitness (ln) (37 °C)
AACUAGCAAUAUUACGUGUU	-2.68 ± 0.11	-2.45 ± 0.16
AACUAGCAAUAUUACGUUUG	-3.27 ± 0.15	-1.72 ± 0.14
AAGAAGCAAUAUUACGAAAU	-1.98 ± 0.17	-2.03 ± 0.19
AAGAAGCAAUAUUACGACAC	-0.918 ± 0.12	-0.625 ± 0.14
AAGAAGCAAUAUUACGACCA	-0.349 ± 0.1	-0.795 ± 0.2
AAGAAGCAAUAUUACGAGAU	-3.43 ± 0.18	-1.56 ± 0.14
AAGAAGCAAUAUUACGAGCG	-0.646 ± 0.14	-0.754 ± 0.2
AAGAAGCAAUAUUACGCACC	-1.11 ± 0.12	-0.644 ± 0.15
AAGAAGCAAUAUUACGCAGU	-2.66 ± 0.18	-2.08 ± 0.15
AAGAAGCAAUAUUACGCAUU	-2.89 ± 0.21	-1.52 ± 0.21
AAGAAGCAAUAUUACGCCCU	0.319 ± 0.11	0.0852 ± 0.12
AAGAAGCAAUAUUACGCCUC	-1.82 ± 0.26	-1.85 ± 0.27
AAGAAGCAAUAUUACGCUAA	-1.69 ± 0.14	-0.682 ± 0.15
AAGAAGCAAUAUUACGCUGC	-2.58 ± 0.32	-1.75 ± 0.35
AAGAAGCAAUAUUACGGACC	-1.28 ± 0.13	-0.312 ± 0.18
AAGAAGCAAUAUUACGGAGG	-3.92 ± 0.29	-2.96 ± 0.32
AAGAAGCAAUAUUACGGAGU	-3.02 ± 0.15	-2.86 ± 0.17
AAGAAGCAAUAUUACGGCCU	-0.278 ± 0.11	-0.574 ± 0.14
AAGAAGCAAUAUUACGGCUC	-1.19 ± 0.12	-0.0707 ± 0.15
AAGAAGCAAUAUUACGGCUG	-0.496 ± 0.077	-0.25 ± 0.12
AAGAAGCAAUAUUACGGUAA	-2.01 ± 0.19	-0.929 ± 0.16
AAGAAGCAAUAUUACGGUCC	-1.1 ± 0.14	0.249 ± 0.16
AAGAAGCAAUAUUACGGUGG	-2.93 ± 0.13	-1.98 ± 0.13
AAGAAGCAAUAUUACGUACC	-0.392 ± 0.14	0.219 ± 0.19
AAGAAGCAAUAUUACGUACU	0.124 ± 0.082	0.141 ± 0.099
AAGAAGCAAUAUUACGUAGG	-2.09 ± 0.082	-1.14 ± 0.12

Sequence	self-splicing fitness (ln) (30 °C)	self-splicing fitness (ln) (37 °C)
AAGAAGCAAUAUUACGUCAA	-1.78 ± 0.11	-0.843 ± 0.088
AAGAAGCAAUAUUACGUGGC	-4.15 ± 0.22	-2.99 ± 0.2
AAGCAGCAAUAUUACGAAAG	-3.93 ± 0.23	-2.29 ± 0.17
AAGCAGCAAUAUUACGACAG	-3.04 ± 0.13	-1.54 ± 0.12
AAGCAGCAAUAUUACGACGU	-0.298 ± 0.067	0.18 ± 0.077
AAGCAGCAAUAUUACGAUCA	-1.28 ± 0.091	-0.405 ± 0.11
AAGCAGCAAUAUUACGCCUG	-2.41 ± 0.13	-1.58 ± 0.14
AAGCAGCAAUAUUACGCGAC	-0.688 ± 0.22	-1.95 ± 0.25
AAGCAGCAAUAUUACGCGCU	-2.53 ± 0.11	-1.73 ± 0.11
AAGCAGCAAUAUUACGCGGA	-2.59 ± 0.13	-1.46 ± 0.11
AAGCAGCAAUAUUACGCGUA	-1.57 ± 0.11	-0.515 ± 0.1
AAGCAGCAAUAUUACGGCGC	-0.59 ± 0.2	-1.02 ± 0.19
AAGCAGCAAUAUUACGGGAC	-4.44 ± 0.46	-3.38 ± 0.39
AAGCAGCAAUAUUACGGGUA	-1.91 ± 0.15	-2.31 ± 0.16
AAGCAGCAAUAUUACGGGUU	-2.1 ± 0.094	-1.61 ± 0.12
AAGCAGCAAUAUUACGGUCG	-1.34 ± 0.061	-0.879 ± 0.093
AAGCAGCAAUAUUACGUCAA	-1.1 ± 0.091	-1.36 ± 0.096
AAGCAGCAAUAUUACGUGCU	-3.6 ± 0.15	-1.85 ± 0.11
AAGCAGCAAUAUUACGUUAG	-3.74 ± 0.18	-2.52 ± 0.15
AAGGAGCAAUAUUACGAAAA	-2.9 ± 0.39	-1.84 ± 0.35
AAGGAGCAAUAUUACGAAUC		-1.46 ± 0.36
AAGGAGCAAUAUUACGACGG		-0.954 ± 0.16
AAGGAGCAAUAUUACGAGAG	-1.62 ± 0.17	-2.58 ± 0.34
AAGGAGCAAUAUUACGAGUA	-3.6 ± 0.43	-3.21 ± 0.4
AAGGAGCAAUAUUACGCACU	-1.53 ± 0.17	-0.454 ± 0.18
AAGGAGCAAUAUUACGCCCC	-1.19 ± 0.47	-1.42 ± 0.46

Sequence	self-splicing fitness (ln) (30 °C)	self-splicing fitness (ln) (37 °C)
AAGGAGCAAUAUUACGCGGU	-3.56 ± 0.26	-1.37 ± 0.26
AAGGAGCAAUAUUACGCGUG	-4.9 ± 0.45	-2.1 ± 0.18
AAGGAGCAAUAUUACGCUGA	-3.54 ± 0.23	-1.44 ± 0.15
AAGGAGCAAUAUUACGGAAU	-3.44 ± 0.25	-2.71 ± 0.26
AAGGAGCAAUAUUACGGAGG	-2.97 ± 0.22	-1.59 ± 0.23
AAGGAGCAAUAUUACGGCGA	-2.84 ± 0.32	-0.936 ± 0.3
AAGGAGCAAUAUUACGGGGG	-2.94 ± 0.19	-0.0467 ± 0.21
AAGGAGCAAUAUUACGUAGG	-3.12 ± 0.22	-2.02 ± 0.44
AAGGAGCAAUAUUACGUUCC	-3.48 ± 0.32	-2.98 ± 0.35
AAGUAGCAAUAUUACGAAAA	-2.83 ± 0.28	-2.14 ± 0.26
AAGUAGCAAUAUUACGAAGA	-2.57 ± 0.34	-2.06 ± 0.34
AAGUAGCAAUAUUACGAAGG	-2.75 ± 0.24	-3.26 ± 0.47
AAGUAGCAAUAUUACGACGG	-1.74 ± 0.29	-1.66 ± 0.34
AAGUAGCAAUAUUACGAGAC	-2.6 ± 0.33	
AAGUAGCAAUAUUACGAGGA	-2.04 ± 0.32	-2.12 ± 0.34
AAGUAGCAAUAUUACGCAGC	-3.59 ± 0.34	-2.3 ± 0.24
AAGUAGCAAUAUUACGCAGG	-3.61 ± 0.27	-1.87 ± 0.15
AAGUAGCAAUAUUACGCCAC	-3.93 ± 0.36	-2.49 ± 0.42
AAGUAGCAAUAUUACGCCAU	-2.41 ± 0.23	-0.903 ± 0.26
AAGUAGCAAUAUUACGCCCG	-1.26 ± 0.23	-0.559 ± 0.22
AAGUAGCAAUAUUACGCCGA	-1.53 ± 0.16	-1.39 ± 0.17
AAGUAGCAAUAUUACGCGAG	-1.74 ± 0.11	-0.889 ± 0.13
AAGUAGCAAUAUUACGCGCG	-0.335 ± 0.087	-0.184 ± 0.12
AAGUAGCAAUAUUACGCGUU	-2.09 ± 0.18	-0.705 ± 0.17
AAGUAGCAAUAUUACGCUGG	-2 ± 0.12	-0.92 ± 0.12
